# Biological target: human CD20 (human) (UniProt P11836)
# Experiment: flow cytometry on a human B-cell lymphoma cell line, 30 min at 4 C, detection with FITC-labeled F(ab)'2 goat anti-human Fc-gamma-specific antibody, median fluorescence intensity
# Chain of human CD20 (human) (P11836 whole entry): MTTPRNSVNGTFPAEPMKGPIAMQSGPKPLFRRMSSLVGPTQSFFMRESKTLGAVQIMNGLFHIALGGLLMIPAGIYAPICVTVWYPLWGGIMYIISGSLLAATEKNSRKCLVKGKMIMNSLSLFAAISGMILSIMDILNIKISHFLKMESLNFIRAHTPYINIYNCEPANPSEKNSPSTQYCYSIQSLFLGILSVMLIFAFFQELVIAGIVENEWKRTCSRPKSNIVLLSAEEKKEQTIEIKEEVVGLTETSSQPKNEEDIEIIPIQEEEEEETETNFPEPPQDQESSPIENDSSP
substance,measurement,value
rituximab (antibody),EC50 (read off the curve),5 nM
